In article PMC10275993:
Blank lines part the entries; values can stand above or below the binder they belong to.

Biological target: acidic H8 loop of karyopherin β2 (KAPB2-H8)
Test: turbidity (OD600) of liquid-liquid phase separation, critical salt concentration; 50 μM R-DPR peptide mixed with 50 μM KAPB2-H8 peptide in 10 mM HEPES pH 7.4 with 0 to 400 mM NaCl; droplets also imaged by confocal microscopy

NaCl concentration until which the droplets remained: 300 mM
B1: (GR)20 (peptide)
peptide: GRGRGRGRGRGRGRGRGRGRGRGRGRGRGRGRGRGRGRGR

critical salt concentration (NaCl at which the droplets disappeared): 250 mM
B2: (PR)20 (peptide)
peptide: PRPRPRPRPRPRPRPRPRPRPRPRPRPRPRPRPRPRPRPR
